# Patent US7589167B2, “ZA loops of bromodomains” (J. David Gladstone Institutes, priority 2000, dated 2009)
# Numbering of substitutions follows the chain as printed. Entries after “also recorded” stand apart in the source; their conditions may differ. Where two headings read alike, the source gives them in different places. Where a SMILES comes first, the peptide text is derived from it. Where no end group is shown, it is not given here.
# T1: P/CAF bromodomain (Homo sapiens, UniProt Q92831, P804A/P805A)
# T1 construct: poly-His (N, cleaved yes); made in house; host or cells: Escherichia coli BL21(DE3)
# T1 sequence (Q92831 719-832 P804A/P805A): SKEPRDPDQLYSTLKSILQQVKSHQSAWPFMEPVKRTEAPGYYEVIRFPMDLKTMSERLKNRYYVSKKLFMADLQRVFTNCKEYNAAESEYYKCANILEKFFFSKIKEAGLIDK
# B1: Tyr809Ala: P/CAF bromodomain point mutant, Tyr809 to Ala (protein)
# chain: T1 sequence (Q92831 719-832 P804A/P805A) with Y91A
# B2: Wild-Type: wild-type bromodomain of P/CAF (residues 719-832 of SEQ ID NO:2) (protein, listed as Homo sapiens)
# chain: T1 sequence (Q92831 719-832 P804A/P805A)
# B3: Tyr802Ala: P/CAF bromodomain point mutant, Tyr802 to Ala (protein)
# chain: T1 sequence (Q92831 719-832 P804A/P805A) with Y84A
# B4: Val752Ala (protein)
# chain: T1 sequence (Q92831 719-832 P804A/P805A) with V34A
# B5: Tyr760Ala: P/CAF bromodomain point mutant, Tyr760 to Ala (protein)
# chain: T1 sequence (Q92831 719-832 P804A/P805A) with Y42A
# B6: Tat: wild type HIV-1 Tat protein (SEQ ID NO:45) (protein)
# chain: MEPVDPRLEPWKHPGSQPKTASNNCYCKRCCLHCQVCFTKKGLGISYGRKKRRQRRRAPQDSKTHQVSLSKQPASQPRGDPTGPKESKKKVERETETDPED
# modifications: Human immunodeficiency virus type 1; Tat protein
# Columns and labels:
# P/CAF bromodomain [1] = biological target: T1, P/CAF bromodomain; test: NMR ligand titration (2D 15N-/13C-HSQC chemical shift changes) of the P/CAF bromodomain; format: binding; details: for binding to the P/CAF bromodomain (qualitative): NMR titration, chemical shift changes
# Procedure: (§1) NMR spectroscopy: All NMR spectra were acquired at 30° C. on a Bruker DRX600 or DRX500 spectrometer. The backbone assignments of the ^1H, ^13C, and ^15N resonances were achieved using deuterium-decoupled triple-resonance experiments of HNCACB and HN(CO)CACB [Yamazaki et al., J. Am. Chem. Soc. 116:11655-11666 (1994)] recorded using the uniformly ^15N/^13C-labeled and fractionally deuterated protein. The side-chain atoms were assigned from 3D HCCH-TOCSY [Clore and Gronenbom, Meth. Enzymol. 239:249-363 (1994)] and (H)C(CO)NH-TOCSY [Logan et al., J. Biolmol. NMR 3:225-231 (1993)] data collected on the uniformly ^15N/^13C-labeled protein. Stereospecific assignments of methyl groups of the Val and Leu residues were obtained using a fractionally ^13C-labeled sample [Neri et al., Biochemistry 28:7510-7516 (1989)]. The NOE-derived distance restraints were obtained from ^15N- or ^13C-edited 3D NOESY spectra. φ-angle restraints were determined based on the ^3JHn,Hα coupling constants measured in a 3D H spectrum [Clore and Gronenbom, Meth. Enzymol. 239:249-363 (1994)]. Slowly exchanging amide protons were identified from a series of 2D ^15N-HSQC spectra recorded after the H2O buffer was changed to a ^2H2O buffer. The intermolecular NOEs used in defining the structure of the bromodomain/Ac-histamine complex were detected in ^13C-edited (F1), ^13C/^15N-filtered (F3) 3D NOESY spectrum [Clore and Gronenbom, Meth. Enzymol. 239:249-363 (1994)]. All NMR spectra were processed with the NMRPipe/NMRDraw programs and analyzed using NMRView [Johnson and Blevins, J. Biomol., NMR 4:603-614 (1994)].
# (§2) Ligand titration: Ligand titration experiments were performed by recording a series of 2D ^15N—- and ^13C-HSQC spectra on the uniformly ^15N-, and ^15N/^13C-labelled bromodomain (˜0.3 mM), respectively, in the presence of different amounts of ligand concentration ranging from 0 to approximately 2.0 mM. The protein sample and the stock solutions of the ligands were all prepared in the same aqueous buffer containing 100 mM phosphate and 5 mM perdeuterated DTT at pH 6.5.
# as §1, with “the uniformly ^15N/^13C-labelled and fractionally” for “the uniformly ^15N/^13C-labeled and fractionally”, “of the valine and leucine” for “of the Val and Leu”, “valine and leucine residues were” for “Val and Leu residues were”, “3D NOESY spectra [Clore and Gronenbom, Meth. Enzymol. 239:249-363 (1994)]. φ-angle restraints” for “3D NOESY spectra. φ-angle restraints”, “on the ^3JHN,H coupling constants” for “on the ^3JHn,Hα coupling constants”, “a 3D HNHA spectrum [Clore” for “a 3D H spectrum [Clore”
# Ligand titration experiments were performed by recording a series of 2D ^15N-HSQC spectra on the uniformly ^15N-labelled bromodomain (˜0.3 mM), respectively, in the presence of different amounts of ligand concentration ranging from 0 to ˜2.0 mM.
# P/CAF bromodomain [2] = biological target: T1, P/CAF bromodomain; test: Peptide competition assay with biotinylated wild type Tat AcK50 peptide (western blot); format: binding; details: protein ~10 μM, wild type:mutant peptide 1:2
# [3] = test system: biotinylated and lysine-acetylated Tat peptide; test: Mutational analysis: binding of P/CAF bromodomain mutant proteins to immobilized lysine-acetylated Tat peptide; set-up: species or system HIV-1; details: peptide immobilized onto streptavidin agarose
# Procedure: Site directed mutagenesis. Site directed mutagenesis was performed on selected residues of P/CAF Bromodomain using quick-change kit (Stratagene). The mutants were confirmed by sequencing and proteins were expressed and purified as above.
# Peptide binding assay. Equal amount (10 μM) of GST, GST-P/CAF bromodomain and its mutant proteins, as well as various GST-fusion bromodomains from CBP and TIF1β were incubated for at least two hours at room temperature with the N-terminal biotinylated and lysine-acetylated Tat peptide (50 μM) in a 50 mM Tris buffer of pH 7.5, containing 50 mM NaCl, 0.1% BSA and 1 mMDTT. Streptavidin agarose (10 μL) was added to mixture and the beads were washed twice in the Tris buffer with 500 mM NaCl and 0.1% NP-40. Proteins were eluted from the argarose beads in SDS buffer and separated on a 14% SDS-PAGE. The resolved proteins were transferred onto nitrocellulose membrane (Pharmacia), and the membrane was blocked overnight with 5% non-fat milk in washing buffer of 20 mM Tris, pH 7.5, plus 150 mM NaCl and 0.1% Tween-20 at 4° C. Western blotting was performed with anti-GST antibody (Sigma) and goat anti-rabbit IgG conjugated with horseradish-peroxidase (Promega) and developed by chemiluminescence. Peptide competition experiments were performed by incubating various non-biotinylated and mutant Tat peptide with the P/CAF bromodomain and the biotinylated and wild type Tat peptide. The molar ratio of the wild type and mutant Tat peptides in the mixture were kept at 1:2. The binding results were analyses by using the procedure as described above.
# To identify the amino acid residues of the P/CAF bromodomain that are important for complex formation, mutant proteins were tested for binding to the biotinylated and lysine-acetylated Tat peptide that is immobilized onto streptavidin agarose (FIG. 10A). […] The results from the mutational analysis agree with the observations of intermolecular NOEs in the NMR spectra.
# [4] = test system: lysine-acetylated H4 peptide; test: NMR titration of wild-type and mutant P/CAF bromodomain proteins with the H4 AcK peptide; format: binding; details: for binding of bromodomain mutants to the lysine-acetylated H4 peptide (qualitative): NMR titration; for Kd: read-out: H4 AcK-Peptide Binding KD
# Procedure: (§3) Site-directed mutagenesis: Mutant proteins were prepared using the QuickChange site-directed mutagenesis kit (Stratagene). The presence of appropriate mutations was confirmed by DNA sequencing.
# as §2
# [5] = Structural integrity of P/CAF bromodomain mutants by 15N-HSQC spectra; format: physicochemical; set-up: key: ++++: as stable as the wild-type; +++: mildly destabilized; ++: moderately destabilized; −: completely unfolded; details: relative to wild-type
# Procedure: as §3
# [6] = test system: Tat transactivation activity; test: Superinduction of Tat transactivation activity by P/CAF; format: cell-based, HIV-1
# From the text: FIG. 7 is a bar graph of the measurement of superinduction of Tat transactivation activity by P/CAF. Tat-KK is the wild type Tat protein, and Tat-RR is the double mutant Tat carrying lysine to arginine mutations at K50 and K51 positions.
# P/CAF = biological target: T2, P/CAF (Homo sapiens, UniProt Q92831); test: Western blot assay to detect P/CAF interaction with the Tat protein in cells; format: cell-based; details: FLAG-Tat, HA-P/CAF
# T2 construct: HA; expressed in transfected cells
# T2 sequence (Q92831 whole entry): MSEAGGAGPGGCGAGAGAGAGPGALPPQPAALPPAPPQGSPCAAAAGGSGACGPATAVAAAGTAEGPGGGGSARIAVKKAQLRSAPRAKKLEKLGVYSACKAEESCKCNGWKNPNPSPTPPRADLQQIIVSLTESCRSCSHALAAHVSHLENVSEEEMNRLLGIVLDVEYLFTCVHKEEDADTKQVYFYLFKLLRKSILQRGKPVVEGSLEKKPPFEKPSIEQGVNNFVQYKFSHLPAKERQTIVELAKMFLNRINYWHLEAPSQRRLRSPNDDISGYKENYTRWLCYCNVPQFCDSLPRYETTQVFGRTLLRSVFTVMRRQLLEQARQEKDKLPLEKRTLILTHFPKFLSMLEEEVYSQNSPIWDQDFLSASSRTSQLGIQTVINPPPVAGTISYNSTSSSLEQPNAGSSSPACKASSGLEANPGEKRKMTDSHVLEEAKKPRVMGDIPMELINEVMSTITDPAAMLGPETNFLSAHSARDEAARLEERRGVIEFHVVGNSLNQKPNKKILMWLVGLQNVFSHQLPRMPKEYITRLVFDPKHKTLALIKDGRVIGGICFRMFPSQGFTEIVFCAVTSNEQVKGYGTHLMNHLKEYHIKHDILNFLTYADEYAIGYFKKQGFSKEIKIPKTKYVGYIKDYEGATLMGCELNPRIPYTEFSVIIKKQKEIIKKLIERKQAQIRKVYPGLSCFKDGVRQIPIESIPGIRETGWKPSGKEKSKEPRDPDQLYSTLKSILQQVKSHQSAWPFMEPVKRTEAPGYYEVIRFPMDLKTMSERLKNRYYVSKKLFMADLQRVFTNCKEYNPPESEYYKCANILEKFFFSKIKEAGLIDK
# From the text: FIGS. 8A-8B show a western blot assay to detect P/CAF interaction with the Tat protein. Note that the protein-protein interaction was only observed with the wild type Tat but not with the Tat K50R/K51R mutant protein. The FLAG was joined to the Tat peptide, whereas the HA-tag was joined to P/CAF.
# [7] = estimated from amide chemical shift changes in 15N-HSQC vs ligand concentration
molecule,measurement,setting,value
CC(=O)NCCCC[C@H](NC(=O)CNC(=O)CNC(=O)[C@H](CCCCN)NC(=O)CNC(=O)[C@H](CCCNC(=N)N)NC(=O)CNC(=O)[C@@H](N)CO)C(=O)NCC(=O)N[C@@H](CC(C)C)C(=O)NCC(=O)N[C@@H](CCCCN)C(=O)O [SGRGKGG-AcK-GLGK],Kd,"P/CAF bromodomain [1]; estimated from NMR titration, 15N-HSQC, pH 6.5, 30° C., read-out: dissociation constant (KD)",346 ± 54 µM
"CC(=O)NCCCC[C@H](NC(=O)[C@H](CCCCN)NC(=O)[C@H](CS)NC(=O)[C@H](Cc1ccc(O)cc1)NC(=O)[C@H](CS)NC(=O)[C@H](CC(N)=O)NC(=O)[C@@H](N)[C@@H](C)O)C(=O)N[C@@H](CS)C(=O)N[C@@H](CS)C(=O)N[C@@H](Cc1ccccc1)C(=O)N[C@@H](Cc1c[nH]cn1)C(=O)O [Tat AcK 28 peptide, TNCYCK-AcK-CCFH] (H-TNCYCKK(Ac)CCFH-OH)",competition with / binding relative to Tat AcK50 peptide (qualitative),P/CAF bromodomain [2],almost no competition
CC(=O)NCCc1cnc[nH]1 [acetyl-histamine],binding to the P/CAF bromodomain (qualitative),P/CAF bromodomain [1],chemical shift perturbations with similar concentration dependence and does
CC(=O)N[C@@H](Cc1c[nH]cn1)C(=O)O [acetyl-histidine],binding to the P/CAF bromodomain (qualitative),P/CAF bromodomain [1],did not bind; also recorded: does not to bind
CC(=O)N[C@@H](CCCCN)C(=O)O [acetyl-lysine],binding to the P/CAF bromodomain (qualitative),P/CAF bromodomain [1],did not bind; also recorded: does not appear to bind
ARKSTGG-AcK-APRKQL (ARKSTGGXAPRKQL; acetyl-lysine; synthetic bromodomain peptide),binding to the P/CAF bromodomain (qualitative),P/CAF bromodomain [1],bind to the P/CAF bromodomain
ISYGR-AcK-KRRQRR,binding to the P/CAF bromodomain (qualitative),P/CAF bromodomain [1],bind to the P/CAF bromodomain
QSTSRHK-AcK-LMFKTE (QSTSRHKXLMFKTE; acetyl-lysine; synthetic bromodomain peptide),binding to the P/CAF bromodomain (qualitative),P/CAF bromodomain [1],bind to the P/CAF bromodomain
"SYGRK(Ac)KRRQRC [Tat AcK50 peptide, SYGR-AcK-KRRQRC]",Kd,P/CAF bromodomain [1],~20 µM
B1,binding of alanine point mutants to the Tat AcK50 peptide (qualitative),[3],nearly complete loss or significantly reduced binding
same,binding of bromodomain mutants to the lysine-acetylated H4 peptide (qualitative),[4],completely abrogated
same,H4 AcK-Peptide Binding KD (μM),[4]; [7],No Binding ^c
same,Structural Integrity,[5],++++
B2,Kd,[4]; [7],346 ± 54 µM
same,Structural Integrity,[5],++++
B3,binding of alanine point mutants to the Tat AcK50 peptide (qualitative),[3],nearly complete loss or significantly reduced binding
same,binding of bromodomain mutants to the lysine-acetylated H4 peptide (qualitative),[4],significantly reduced ligand binding affinity
same,Kd,[4]; [7],> 10000 µM
same,Structural Integrity,[5],+++
B4,binding of alanine point mutants to the Tat AcK50 peptide (qualitative),[3],nearly complete loss or significantly reduced binding
same,binding of bromodomain mutants to the lysine-acetylated H4 peptide (qualitative),[4],significantly reduced ligand binding affinity
same,Kd,[4]; [7],> 10000 µM
same,Structural Integrity,[5],++
B5,binding of bromodomain mutants to the lysine-acetylated H4 peptide (qualitative),[4],significantly reduced ligand binding affinity
same,Kd,[4]; [7],> 10000 µM
same,Structural Integrity,[5],+++
B6,increase of Tat transactivation activity upon P/CAF stimulation,[6],≤ 30 fold
same,specific interaction with P/CAF in cells,P/CAF,detected
